Results reported in patent US20170008928A1, “NOVEL PEPTIDES AND PEPTIDE DERIVATIVES AND USES THEREOF” (Novo Nordisk A/S, priority 2015, published 2017).
Starred links: 1 amine or outer side, 2 acyl side, 3 side chain; linkers in the order of their positions; H or OH if unused. Non-standard residues stand in square brackets, D forms with d. Residues, ends and D or L forms follow the SMILES beside them. No end group written: not given here. *: point of attachment. Phe(4-CH2SO3H) = N[C@@H](Cc1ccc(CS(=O)(=O)O)cc1)C(=O)O; sY = N[C@@H](Cc1ccc(OS(=O)(=O)O)cc1)C(=O)O; C18 diacid = O=C(O)CCCCCCCCCCCCCCCCC(=O)*; NMe1Nal = CN[C@@H](Cc1cccc2ccccc12)C(=O)O; γGlu = O=C(O)[C@H](CCC(=O)[*:2])N[*:1]; NMeF = CN[C@@H](Cc1ccccc1)C(=O)O; dNMeD = CN[C@H](CC(=O)O)C(=O)O; Nle = CCCC[C@H](N)C(=O)O; AEEA = NCCOCCOCC(=O)O

T1: human cholecystokinin-2 receptor (CCK-2R) (Homo sapiens, UniProt P32239)
T1 construct: host or cells: 1321-N1 cells (plasma membranes prepared by Evotec AG Hamburg)
T1 sequence (P32239 1-447): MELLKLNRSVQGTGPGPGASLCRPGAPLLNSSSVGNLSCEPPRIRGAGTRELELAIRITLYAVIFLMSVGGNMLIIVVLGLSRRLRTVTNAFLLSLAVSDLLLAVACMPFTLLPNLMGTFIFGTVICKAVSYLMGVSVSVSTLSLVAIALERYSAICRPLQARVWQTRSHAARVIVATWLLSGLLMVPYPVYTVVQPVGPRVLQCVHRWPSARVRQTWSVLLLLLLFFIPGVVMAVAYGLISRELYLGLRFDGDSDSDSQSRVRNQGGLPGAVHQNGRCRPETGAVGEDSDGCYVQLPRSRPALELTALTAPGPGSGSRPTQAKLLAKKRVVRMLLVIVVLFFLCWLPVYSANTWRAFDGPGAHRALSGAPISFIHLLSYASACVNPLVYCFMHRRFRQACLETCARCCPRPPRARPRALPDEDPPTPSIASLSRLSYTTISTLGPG

T2: human cholecystokinin-2 receptor (human), P32239
T2 chain: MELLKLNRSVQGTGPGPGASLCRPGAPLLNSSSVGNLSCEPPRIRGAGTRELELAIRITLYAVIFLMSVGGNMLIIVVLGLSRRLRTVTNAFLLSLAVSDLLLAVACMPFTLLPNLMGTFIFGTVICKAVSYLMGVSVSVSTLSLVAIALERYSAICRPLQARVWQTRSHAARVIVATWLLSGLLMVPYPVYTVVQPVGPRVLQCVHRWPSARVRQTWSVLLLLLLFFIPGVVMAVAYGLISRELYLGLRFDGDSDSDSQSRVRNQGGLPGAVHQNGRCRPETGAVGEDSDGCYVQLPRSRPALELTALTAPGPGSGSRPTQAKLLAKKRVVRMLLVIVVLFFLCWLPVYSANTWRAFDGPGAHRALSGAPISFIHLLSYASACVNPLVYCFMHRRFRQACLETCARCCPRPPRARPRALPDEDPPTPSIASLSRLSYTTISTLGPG

T3: human cholecystokinin-1 receptor (human), P32238
T3 chain: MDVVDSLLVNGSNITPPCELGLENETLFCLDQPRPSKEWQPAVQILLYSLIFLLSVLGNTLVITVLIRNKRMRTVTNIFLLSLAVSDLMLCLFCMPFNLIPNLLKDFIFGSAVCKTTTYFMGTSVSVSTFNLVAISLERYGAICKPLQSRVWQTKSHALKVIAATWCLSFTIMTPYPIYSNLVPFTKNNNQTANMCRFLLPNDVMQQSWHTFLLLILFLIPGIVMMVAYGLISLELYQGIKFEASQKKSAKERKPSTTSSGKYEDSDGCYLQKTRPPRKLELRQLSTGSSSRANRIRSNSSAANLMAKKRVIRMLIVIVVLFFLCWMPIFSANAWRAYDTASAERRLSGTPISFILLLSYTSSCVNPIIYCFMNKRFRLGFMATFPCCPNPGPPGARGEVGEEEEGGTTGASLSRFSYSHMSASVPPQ


Experiments:
[1] = Chemical stability compared to CCK-8s, 8 mM phosphate pH 7.4, RP-UHPLC; type: physicochemical; settings: for Absolute purity loss (pp): 1 mM in 8 mM sodium phosphate pH 7.4
Protocol: The resulting samples were stored in HPLC vials at 5° C. and 37° C. for 2 weeks. The samples were analysed in the beginning of the experiment (t=0), after one week and after two weeks by RP-UHPLC with a mobile phase containing phosphate and with a gradient of acetonitrile. UV detection at 215 nm was used. Samples after one week and two weeks were analysed twice. The calculations were done as described above, and the results are summarised in Table 7 (average of two determinations).

[2] = molecular target: T1, human cholecystokinin-2 receptor (CCK-2R); assay: In vitro potency on CCK-2R, whole cell functional assay (IP1 accumulation, IP-One HTRF); type: cell-based; settings: 1321-N1 cells stably expressing CCK-2R; IP1 accumulation; highest dose tested 1×10^6 pM; read-out: EC50 (CCK-2R)
[3] = Pharmacokinetic (PK) studies in mini-pig, i.v.; type: in vivo; settings: i.v. 5 nmol/kg, female Göttingen mini-pigs, harmonic mean; for half-life: minipig, plasma, iv, read-out: Plasma terminal half-life (T½) (converted)
Protocol: The purpose of this study is to determine the protraction in vivo of a number of CCK derivatives of the invention after intravenous (i.v.) administration to mini-pigs, i.e. the prolongation of their time in the body and thereby their time of action. This was done in pharmacokinetic (PK) studies, where the terminal half-life of the derivative in question was determined. By terminal half-life is generally meant the period of time it takes to halve a certain plasma concentration, measured after the initial distribution phase.
The derivatives of the compounds listed in Table 4 were subjected to PK studies as described in the following.
Female Göttingen mini-pigs obtained from Ellegaard Göttingen Minipigs (Dalmose, Denmark) at approximately 6 months of age and weighing approximately 17 kg were used in the studies. […] Additional blood samples were collected for the derivatives of Examples 2, 4, 7, 8, and 9 at the following time points: 5, 12, 22, 28 and 144 hours. The blood samples were collected into test tubes containing EDTA buffer for stabilisation and kept on ice for max. 20 minutes before centrifugation. The centrifugation procedure to separate plasma was: 4° C., approx. 2500 g for 10 minutes. Plasma was collected and immediately transferred to Micronic tubes stored at −20° C. until assayed.
Plasma was pipetted into Micronic tubes on dry ice, and kept at −20° C. until analysed for plasma concentration of the respective CCK derivative using LC-MS. The plasma samples (including standard curve samples used for quantitation of unknowns and prepared from blank plasma spiked with CCK compound at a concentration range of 0.5-2000 nM for the compounds of Examples 3, 5, 6 or 0.5-1000 nM for the remaining Example compounds) were protein precipitated using three volumes of methanol and centrifuged (16000×g, 4° C., 20 min). The supernatants were injected into the chromatographic system (TurboFlow Transcend 1250 & 10 valve VIM, Thermo Fisher Scientific) which consisted of an initial Turboflow Cyclone purification column 0.5×50 mm (Thermo Fischer Scientific) and an eluting Aeris peptide 3.6 μm XB—C18 column 2.1×50 mm (Phenomenex) kept at 60° C.
The CCK derivatives of Examples 2-9 were eluted using LC-MS method I: A chromatographic gradient system with mobile phases consisting of water with 0.1 v/v % formic acid (mobile phase A) and water/acetonitrile 10/90 v/v with 0.1 v/v % formic acid (mobile phase B). The 2 minute gradient started at 60% mobile phase B and ended at 100% mobile phase B with a flow of 0.4 mL/min. The CCK derivatives were detected and quantified after on-line infusion of the LC flow to the LTQ OrbiTrap Discovery mass spectrometer (Thermo Fischer Scientific) equipped with an electrospray interface operated in negative mode, ESI− (Sheath gas flow rate at 40, Aux gas flow rate at 30, Sweep gas flow rate at 2, Spray voltage at 2.8 kV, Capillary temp. at 275° C., S-lens RF level at −125 and Heater temp. at 325° C.).
The remaining Example compounds were eluted using LC-MS method II: A chromatographic gradient system with mobile phases consisting of water with 1 v/v % formic acid (mobile phase A) and water/acetonitrile 10/90 v/v with 1 v/v % formic acid (mobile phase B). The initial 0.25 minute gradient started at 0% mobile phase B and ended at 70% mobile phase B followed by the second 2.2 minute gradient started at 70% mobile phase B and ended at 75% mobile phase B with a flow of 0.4 mL/min. These CCK derivatives were detected and quantified as described above except that the Spray voltage was 4.0 kV.
Individual plasma concentration-time profiles were analysed by a non-compartmental model in Phoenix v. 6.3 (Pharsight Inc., Mountain View, Calif., USA).

[4] = molecular target: T1, human cholecystokinin-2 receptor (CCK-2R); assay: In vitro receptor binding to CCK-2R, SPA displacement of [125I]-CCK-8s from plasma membranes
[5] = molecular target: T2, human cholecystokinin-2 receptor …; assay: cell-based or functional assay
[6] = molecular target: T3, human cholecystokinin-1 receptor …; assay: cell-based or functional assay
[7] = molecular target: T2, human cholecystokinin-2 receptor …; assay: SPA competition vs [125I]-CCK-8s, membranes
[8] = molecular target: T3, human cholecystokinin-1 receptor …; assay: SPA competition vs [125I]-CCK-8s, membranes

| EC50 (CCK-2R) [5] | EC50 (CCK-1R) [6] | IC50 [7] | IC50 [8] | Molecule | further results |
| --- | --- | --- | --- | --- | --- |
| – | – | – | – | CSCC[C@H](NC(=O)[C@H](Cc1ccc(OS(=O)(=O)O)cc1)NC(=O)[C@@H](N)CC(=O)O)C(=O)NCC(=O)N[C@@H](Cc1c[nH]c2ccccc12)C(=O)N[C@@H](CCSC)C(=O)N[C@@H](CC(=O)O)C(=O)N[C@@H](Cc1ccccc1)C(N)=O [CCK-8s, H-Asp-Tyr(SO3H)-Met-Gly-Trp-Met-Asp-Phe-NH2] | purity at the start of the experiment (incubation time 0) ([1]; 1 mM in 8 mM sodium phosphate pH 7.4, t=0): 97.94%; Absolute purity loss (pp) ([1]; 5° C., 1 week): −0.04 pp; Absolute purity loss (pp) ([1]; 5° C., 2 weeks): 0.09 pp; Absolute purity loss (pp) ([1]; 37° C., 1 week): 1.42 pp; Absolute purity loss (pp) ([1]; 37° C., 2 weeks): 3.33 pp |
| – | – | – | – | CCCC[C@H](NC(=O)[C@H](Cc1c[nH]c2ccccc12)NC(=O)CNC(=O)[C@H](CC(C)C)NC(=O)[C@H](Cc1ccc(OS(=O)(=O)O)cc1)NC(=O)[C@H](CC(=O)O)NC(=O)COCCOCCNC(=O)COCCOCCNC(=O)CC[C@H](NC(=O)CCCCCCCCCCCCCCCCC(=O)O)C(=O)O)C(=O)N(C)[C@H](CC(=O)O)C(=O)N(C)[C@@H](Cc1cccc2ccccc12)C(N)=O [Example 4, 2-[2-[2-[[2-[2-[2-[[(4S)-4-Carboxy-4-(17-carboxyheptadecanoylamino)butanoyl]amino]ethoxy]ethoxy]acetyl]amino]ethoxy]ethoxy]acetyl-Asp-sTyr-Leu-Gly-Trp-Nle-DMeAsp-Me1Nal-amide] ({C18 diacid-γGlu-AEEA-AEEA}-D[sY]LGW[Nle][dNMeD][NMe1Nal]-NH2) | EC50 [2]: 340 nM; Plasma terminal half-life (T½) [3]: 147 h |
| – | – | – | – | CCCC[C@H](NC(=O)[C@H](Cc1c[nH]c2ccccc12)NC(=O)CNC(=O)[C@H](CC(C)C)NC(=O)[C@H](Cc1ccc(CS(=O)(=O)O)cc1)NC(=O)[C@H](CC(=O)O)NC(=O)COCCOCCNC(=O)COCCOCCNC(=O)CC[C@H](NC(=O)CCCCCCCCCCCCCCCCC(=O)O)C(=O)O)C(=O)N(C)[C@H](CC(=O)O)C(=O)N(C)[C@@H](Cc1ccccc1)C(N)=O [Example 5, 2-[2-[2-[[2-[2-[2-[[(4S)-4-Carboxy-4-(17-carboxyheptadecanoylamino)butanoyl]amino]ethoxy]ethoxy]acetyl]amino]ethoxy]ethoxy]acetyl-Asp-Phe(4-sulfomethyl)-Leu-Gly-Trp-Nle-DMeAsp-MePhe-amide] ({C18 diacid-γGlu-AEEA-AEEA}-D[Phe(4-CH2SO3H)]LGW[Nle][dNMeD][NMeF]-NH2) | half-life [3]: 4.42 days; IC50 [4]: 380 nM |
| – | – | – | – | CCCC[C@H](NC(=O)[C@H](Cc1c[nH]c2ccccc12)NC(=O)CNC(=O)[C@H](CC(C)C)NC(=O)[C@H](Cc1ccc(OS(=O)(=O)O)cc1)NC(=O)[C@H](CC(=O)O)NC(=O)CCCCCCCCCCCCCCCCC(=O)O)C(=O)N(C)[C@H](CC(=O)O)C(=O)N(C)[C@@H](Cc1ccccc1)C(N)=O [Example 38, 17-Carboxyheptadecanoyl-Asp-sTyr-Leu-Gly-Trp-Nle-DMeAsp-MePhe-amide] | EC50 [2]: > 1000 nM; half-life [3]: 0.125 days |
| > 1000 nM | 240 pM | 6100 nM | 0.078 nM | D[sY]LGWI[DMeAsp][NMeF]-NH2 [Asp-sTyr-Leu-Gly-Trp-Ile-DMeAsp-MePhe-amide] | – |
| 79 nM | 270 pM | 420 nM | – | {C18 diacid-γGlu-AEEA-AEEA}-D[sY]LGWL[DMeAsp][NMeF]-NH2 | – |
| 150 nM | 170 pM | 1000 nM | 0.19 nM | {C18 diacid-γGlu-AEEA-AEEA}-D[sY]LGWP[DMeAsp][NMeF]-NH2 | – |
| 730 nM | 140 pM | 6400 nM | 0.31 nM | {C18 diacid-γGlu-AEEA-AEEA}-D[sY]LGWV[DMeAsp][NMeF]-NH2 | – |
| 260 nM | 180 pM | 2300 nM | 0.1 nM | {C18 diacid-γGlu-AEEA-AEEA}-D[sY]LGWI[DMeAsp][NMeF]-NH2 | – |
